In patent US6919204B2, “Modulation of gene expression using localization domains” (Sangamo Biosciences, Inc., priority 2000, dated 2005):

B1: dMBD-likeΔ: shorter Drosophila MBD-like isoform, product of the 842 base mRNA (SEQ ID NO:15) (protein)
chain: MQMNPSVTIERKRVDCSVLPKGWQRDEVRKSGSSANNNASSNNNSSATASSNNNNNKVDVFYYSRALRTDVSLVPPIRQTASIFKQPVTVIRNHKQDPAKAKNEPKHGTREKPKQLFWEKRLERLRACHDSGEELDDISLPKTIRTVGPNVNEQTVLQSVATALHMLNAGVHGQSSTKADLTKNAMAFMNPEQPLMHAVIISEDDIRKQEDRVGVARRKLQDALKT
B2: dMBD-like: Drosophila methyl CpG binding domain protein homolog, product of the 1115 base mRNA (SEQ ID NO:14) (protein)
chain: MQMNPSVTIERKRVDCSVLPKGWQRDEVRKSGSSANNNASSNNNSSATASSNNNNNKVDVFYYSPTGKRAEGKPQDIAIPDFQPGKMPHCALPSPSISLYRCSAMPLPIASGGGNGATSGSAANALKRKFARSQGGNAAGAAGAAPPAATASSAATATAASASPSTANRQQQQIELSRALRTDVSLVPPIRQTASIFKQPVTVIRNHKQDPAKAKNEPKHGTREKPKQLFWEKRLERLRACHDSGEELDDISLPKTIRTVGPNVNEQTVLQSVATALHMLNAGVHGQSSTKADLTKNAMAFMNPEQPLMHAVIISEDDIRKQEDRVGVARRKLQDALKT

Assays:
[1] = system: G5DE5tkLuc reporter in S2 cells; assay: Effect of Trichostatin-A on Gal4-tethered repression; type: cell-based, Drosophila; conditions: TSA 100 nM and 400 nM, 24 h before harvest
Protocol: (§1) Drosophila S2 cells were grown in Schneider's medium (Sigma) at 27° C. containing 10% FBS and penicillin/streptomycin. Cells were transfected using the Superfect reagent (Qiagen) following the manufacturer's directions. Transfection assays included 1.5 μg of either the pG5DE5tkLuc reporter or the p-37tkRLuc internal control, essentially as described in Chen et al. (1998) Mol Cell Biol 18:7259-7268. The Gal4 DNA binding domain constructs, pACTIN-SV-Gal4-Gro, pACTIN-SV-Gal4-MBD and pACTIN-SV-Gal4-MBDΔ were constructed by insertion of the Gal4 DBD into the HindIII/PstI sites of pACTIN-SV followed by insertion of Gro, dMBD-like and dMBD-likeΔ into the EcoRI site of the resulting plasmid. Quantities of individual Gal4 plasmids were varied as described in the figure legends. The total amount of plasmid was normalized to 4 μg by addition of pACTIN-SV vector (Huynh et al. (1999) J. Mol Biol 288:13-20) as carrier. Cells were harvested 12 h after transfection and luciferase assays were performed using an Enhanced Luciferase Assay Kit (Pharmingen) according to the manufacturer's instructions. Where indicated, transfected cells were treated with Trichostatin A (TSA, Wako) for 24 h before harvest. If dMBD-like represses transcription through recruitment of a Drosophila Mi-2 complex, transcriptional repression should be sensitive to inhibitors of histone deacetylases. Accordingly, the effect of Trichostatin-A, a histone deacetylase inhibitor, on dMBD-like-mediated repression was tested.

[2] = system: G5DE5tkLuc reporter in S2 cells; assay: Cotransfection transcription assay, Gal4-tethered repression of luciferase reporter; type: cell-based, Drosophila; conditions: transfection into S2 cells; protein not tethered
Protocol: as §1, with “If dMBD-like represses transcription through recruitment of a Drosophila Mi-2 complex, transcriptional repression should be sensitive to inhibitors of histone deacetylases. Accordingly, the effect of Trichostatin-A, a histone deacetylase inhibitor, on dMBD-like-mediated repression was tested.” left out

[3] = system: methylated (GAM12) and unmethylated (GAC12) DNA probes; assay: Gel mobility-shift assay (solution binding); conditions: GAC12 or GAM12 probe; 50, 75, 150 ng protein
Protocol: (§2) Gel mobility shifts were performed in 10% polyacrylamide gels run in 0.5×TBE buffer (45 mM Tris, pH 8.0, 45 mM boric acid, 1 mM EDTA) using GAC12 or GAM12 double-stranded oligonucleotide probes, essentially as described in Wade et al. (1999) Nature Genet. 23:62-66. One picomole of radiolabelled probe was mixed with purified recombinant protein as indicated in the figure legends in 10 mM Tris HCl pH 8.0, 3 mM MgCl2, 50 mM NaCl, 0.1 mM EDTA, 0.1% NP-40, 2 mM DTT, 5% glycerol and 0.4 mg/ml BSA. The samples were incubated for 30 min at 37° C. 30 pmoles of competitor DNA (GAC12 or GAM12) were used per binding reaction. Gels were scanned on a Phosphormager (Molecular Dynamics). The procedure used for southwestern assays is as described in Wade et al. (1999), supra.
Solution interactions with DNA were also examined using an electrophoretic mobility shift assay (FIG. 1D). […] No interaction was detected under these conditions, even non-specific aggregation.

[4] = system: methylated (GAM12) and unmethylated (GAC12) DNA probes; assay: Southwestern assay with immobilized recombinant protein; type: binding
Protocol: as §2
In Southwestern assays using immobilized protein, neither isoform interacted with the probes, regardless of methylation status (FIG. 1C). Thus, either the proteins fail to bind or they are unable to refold on the membrane surface.

Molecule	relief of repression by Gal4-Gro [1]	relief of repression mediated by tethered dMBD-like [1]	relief of repression mediated by tethered dMBD-likeΔ [1]	transcriptional repression lacking the Gal4 DBD [2]	binding to DNA in solution (electrophoretic mobility shift) [3]	binding of immobilized protein to DNA probes (Southwestern) [4]
CC(/C=C/C(=O)NO)=C\[C@@H](C)C(=O)c1ccc(N(C)C)cc1 [Trichostatin-A]	relieves repression	largely relieved	largely relieved	–	–	–
B1	–	–	–	failed to repress transcription	–	–
B2	–	–	–	failed to repress transcription	fails to bind methylated DNA in solution	fails to bind methylated DNA
